# Experimental data taken from patent US20240294611A1 (University of Texas, published 2024).
# B1: 3A3 full-length antibody (mouse variable region-human IgG1 constant region chimera) (antibody, V domains shown)
# VH: QVQLQQSGAELLKPGASVKLSCTASGFNIKDTYIHWLKQRPEQGLEWIGRIGPAIGNTIYAPKFQGKATITTDTSSNTAYLQLSSLTSEDTAVYYCARYYGSSYYYFDYWGQGTTLTVSS
# VL: DIVMTQSAPSVPVTPGESVSISCRSSKSLLHSNGNTYLYWFLQRPGQSPQLLIYRMSNLASGVPDRFSGSGSGTAFTLRISRVEAEDVGVYYCMQYLEYPLTFGAGTKLELKR
# Target: SARS-CoV spike without stabilizing modifications on pseudovirus (SARS-CoV, UniProt P59594 14-1255)
# Assay: cell-based or functional assay
binder,measurement,value
B1,Pseudovirus IC50,188 nM
